Here are results for three molecules from patent US20250002593A1.

B1: BI655130 (antibody, V domains shown)
VH: QVQLVQSGAEVKKPGASVKVSCKASGYSFTSSWIHWVKQAPGQGLEWMGEINPGNVRTNYNENFRNKVTMTVDTSISTAYMELSRLRSDDTAVYYCTVVFYGEPYFPYWGQGTLVTVSS
VL: QIVLTQSPGTLSLSPGERATMTCTASSSVSSSYFHWYQQKPGQAPRLWIYRTSRLASGVPDRFSGSGSGTDFTLTISRLEPEDAATYYCHQFHRSPLTFGAGTKLEIK
B2: ANB019 (antibody, V domains shown)
VH: QVQLVQSGAEVKKPGASVKVSCKASGYTFTNYWMNWVRQAPRQGLEWMGMFHPTGDVTRLNQKFKDRVTMTRDTSTSTVYMELSSLRSEDTAVYYCARTTSMIIGGFAYWGQGTLVTVSS
VL: DIVMTQTPLSLSVTPGQPASISCRSSKSLLHRNAITYFYWYLHKPGQPPQLLIYQMSNLASGVPDRFSGSGSGTDFTLKISRVEAEDVGVYYCAQNLELPLTFGGGTKVEIK
B3: REGN14 (antibody, V domains shown)
VH: EVQLVESGGDLVQPGRSLRLSCAASGFTFDDYAMHWVRQAPGKGLEWVSVISWNSDVIAYSDSVKGRFTISRDNAKNSLYLQMNSLRTEDTALYYCTKGHKWSFFDYWGQGTLVTVSS
VL: EIVLTQSPATLSLSPGERATLSCRASQSISSYLAWYQQKPGQAPRLLIFNVANRATDIPARFSGSGSGTDFTLTISSLEPEDFAVYYCQQRSNWPLTFGGGTKVEIK

The assay has as its target membrane cyno IL-36R (cynomolgus). Kind of assay: binding to cynomolgus IL-36R; the legend and Example 8 say membrane cyno IL-36R on transfected HEK293 cells by FACS, but the y axis on the sheet is OD450 nm; unit taken from the x axis. For orientation: Flow cytometry measures light scatter and fluorescence of single cells or particles in a stream.
In general, EC50 refers to the concentration that produces a half-maximal response. Lower therefore signals a more potent agent. Regarding B1, the EC50 came to 0.196 mg/L.

Molecule B2 yielded an EC50 of 0.0132 mg/L. The result for B3 reads 0.0059 mg/L.
